Experimental findings from IntAct's records for PubMed 23260139 are described below.

The target of the assay is vinc_mouse Vcl (UniProt Q64727).
Sequence of vinc_mouse Vcl (Q64727 whole entry): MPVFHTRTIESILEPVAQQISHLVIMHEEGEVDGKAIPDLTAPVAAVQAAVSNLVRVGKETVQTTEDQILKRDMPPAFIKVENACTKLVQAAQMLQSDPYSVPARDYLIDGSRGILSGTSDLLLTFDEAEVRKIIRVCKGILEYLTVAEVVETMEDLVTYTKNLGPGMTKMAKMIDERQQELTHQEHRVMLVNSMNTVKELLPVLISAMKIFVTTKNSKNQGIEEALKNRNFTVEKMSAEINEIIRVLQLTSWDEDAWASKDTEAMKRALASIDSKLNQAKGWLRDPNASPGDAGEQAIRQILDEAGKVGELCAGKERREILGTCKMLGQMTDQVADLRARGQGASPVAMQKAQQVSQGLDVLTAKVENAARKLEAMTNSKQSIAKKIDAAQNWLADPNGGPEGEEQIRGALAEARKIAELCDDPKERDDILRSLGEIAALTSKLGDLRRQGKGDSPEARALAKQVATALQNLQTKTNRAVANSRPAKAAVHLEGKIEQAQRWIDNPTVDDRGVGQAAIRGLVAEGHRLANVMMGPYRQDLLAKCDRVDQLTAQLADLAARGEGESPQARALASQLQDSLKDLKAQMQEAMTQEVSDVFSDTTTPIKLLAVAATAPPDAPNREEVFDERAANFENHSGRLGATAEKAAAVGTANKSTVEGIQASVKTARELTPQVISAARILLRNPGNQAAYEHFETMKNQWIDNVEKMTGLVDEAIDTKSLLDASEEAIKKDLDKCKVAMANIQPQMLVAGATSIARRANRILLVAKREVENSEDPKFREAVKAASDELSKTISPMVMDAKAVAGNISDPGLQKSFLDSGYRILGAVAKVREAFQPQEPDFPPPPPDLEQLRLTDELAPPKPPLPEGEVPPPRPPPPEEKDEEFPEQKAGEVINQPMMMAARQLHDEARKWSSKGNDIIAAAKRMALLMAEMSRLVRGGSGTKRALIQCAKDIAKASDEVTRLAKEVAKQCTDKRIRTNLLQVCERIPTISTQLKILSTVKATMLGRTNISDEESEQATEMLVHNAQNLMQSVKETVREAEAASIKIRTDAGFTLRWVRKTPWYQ

Sequence of Paxillin (Gallus gallus (Chicken)), P49024 E151Q (P49024 whole entry E151Q): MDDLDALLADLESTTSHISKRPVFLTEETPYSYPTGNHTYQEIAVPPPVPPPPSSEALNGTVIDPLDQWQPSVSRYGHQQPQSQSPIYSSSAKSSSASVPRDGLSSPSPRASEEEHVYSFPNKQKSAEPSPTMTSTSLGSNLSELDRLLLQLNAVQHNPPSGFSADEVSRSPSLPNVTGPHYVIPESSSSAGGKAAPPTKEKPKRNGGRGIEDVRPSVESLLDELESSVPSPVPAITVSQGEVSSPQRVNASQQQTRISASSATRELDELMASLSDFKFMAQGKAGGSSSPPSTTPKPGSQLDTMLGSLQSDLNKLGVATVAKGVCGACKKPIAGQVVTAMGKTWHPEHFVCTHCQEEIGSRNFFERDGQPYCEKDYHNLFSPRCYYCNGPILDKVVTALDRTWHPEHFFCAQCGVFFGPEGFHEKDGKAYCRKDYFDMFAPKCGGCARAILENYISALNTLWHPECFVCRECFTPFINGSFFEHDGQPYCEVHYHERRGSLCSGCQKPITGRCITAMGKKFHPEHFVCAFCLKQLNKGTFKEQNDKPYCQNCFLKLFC

“Paxillin (Gallus gallus (Chicken)), P49024 E151Q”: the “effect of a mutation on the interaction” value is given as “decreasing interaction strength”.
